Measured values from US10662235B2, “Cysteine engineered fibronectin type III domain binding molecules” (Janssen Biotech, Inc., priority 2016, dated 2020).

assay: Thermal stability by differential scanning calorimetry; format: physicochemical; settings: c-Met-binding FN3 domains, DSC in PBS
Description: The thermal stability of cysteine-NEM conjugates was assessed by differential scanning calorimetry (DSC). The only the conjugates tested were those determined to express at high levels, conjugate efficiently, and retain EGFR binding. Additionally, cysteine variants within the BC and FG loops were excluded. Stability data was generated by heating a 400 μL aliquot of the variant from 25° C. to 100° C. at a scan rate of 1° C. per minute in a VP-DSC instrument (MicroCal). A second identical scan was completed on the sample in order to assess the reversibility of thermal folding/unfolding. Data was fitted to a 2-state unfolding model in order to calculate the melting temperature (Table 10).
Thermal Stability of c-Met-Binding FN3 Domains Differential scanning calorimetry in PBS was used to assess the stability of each FN3 domain.

Molecule	Thermal Stability (Tm, C.)
P114AR7P92-G8: c-Met-binding FN3 domain, SEQ ID NO: 36 (protein, c-Met binding FN3 domain) LPAPKNLVVSRVTEDSARLSWTAPDAAFDSFVIRYFEFLGSGEAIVLTVPGSERSYDLTGLKPGTEYVVQILGVKGGYISIPLSAIFTT	90.9 C.
P114AR7P95-D4: c-Met-binding FN3 domain, SEQ ID NO: 45 (protein, c-Met binding FN3 domain) LPAPKNLVVSRVTEDSARLSWTAPDAAFDSFWIRYFEFLGSGEAIVLTVPGSERSYDLTGLKPGTEYVVQILGVKGGYISIPLSAIFTT	85.3 C.
P114AR7P93-H9: c-Met-binding FN3 domain, SEQ ID NO: 40 (protein, c-Met binding FN3 domain) LPAPKNLVVSRVTEDSARLSWTAPDAAFDSFWIRYFEFLGSGEAIVLTVPGSERSYDLTGLKPGTEYVVQIIGVKGGHISLPLSAIFTT	88.2 C.
P114AR7P95-H8: c-Met-binding FN3 domain, SEQ ID NO: 49 (protein, c-Met binding FN3 domain) LPAPKNLVVSRVTEDSARLSWTAPDAAFDSFWIRYFEFVSKGEAIVLTVPGSERSYDLTGLKPGTEYVVNIMGVKGGSISPPLSAIFTT	83 C.
P114AR7P92-H5: c-Met-binding FN3 domain, SEQ ID NO: 37 (protein, c-Met binding FN3 domain) LPAPKNLVVSRVTEDSARLSWTAPDAAFDSFWIRYLEFLLGGEAIVLTVPGSERSYDLTGLKPGTEYVVQIMGVKGGTVSPPLSAIFTT	87 C.
P114AR7P93-G8: c-Met-binding FN3 domain, SEQ ID NO: 39 (protein, c-Met binding FN3 domain) LPAPKNLVVSRVTEDSARLSWTAPDAAFDSFWIRYFEFLGSGEAIVLTVPGSERSYDLTDLKPGTEYGVTINGVKGGRVSTPLSAIFTT	76.8 C.
P114AR7P95-G7: c-Met-binding FN3 domain, SEQ ID NO: 48 (protein, c-Met binding FN3 domain) LPAPKNLVVSRVTEDSARLSWTAPDAAFDSFWIRYFELLSTGEAIVLTVPGSERSYDLTGLKPGTEYVVNIMGVKGGSISPPLSAIFTT	87.2 C.
P114AR7P94-A3: c-Met-binding FN3 domain, SEQ ID NO: 41 (protein, c-Met binding FN3 domain) LPAPKNLVVSRVTEDSARLSWTAPDAAFDSFWIRYFEFLGSGEAIVLTVPGSERSYDLTGLKPGTEYVVNIMGVKGGKISPPLSAIFTT	86.2 C.
P114AR7P94-E5: c-Met-binding FN3 domain, SEQ ID NO: 42 (protein, c-Met binding FN3 domain) LPAPKNLVVSRVTEDSARLSWTAPDAAFDSFWIRYFEFLGSGEAIVLTVPGSERSYDLTGLKPGTEYAVNIMGVKGGRVSVPLSAIFTT	80 C.
P114AR7P95-F10: c-Met-binding FN3 domain, SEQ ID NO: 47 (protein, c-Met binding FN3 domain) LPAPKNLVVSRVTEDSARLSWTAPDAAFDSFWIRYFEFTTAGEAIVLTVPGSERSYDLTGLKPGTEYVVNIMGVKGGSISPPLSAIFTT	85.2 C.
